The values that follow are results of earlier work, collected in publication PMC6430685.

For this series, the target named is BAX (Homo sapiens) (UniProt Q07812).
Sequence of BAX (Homo sapiens) (Q07812 whole entry): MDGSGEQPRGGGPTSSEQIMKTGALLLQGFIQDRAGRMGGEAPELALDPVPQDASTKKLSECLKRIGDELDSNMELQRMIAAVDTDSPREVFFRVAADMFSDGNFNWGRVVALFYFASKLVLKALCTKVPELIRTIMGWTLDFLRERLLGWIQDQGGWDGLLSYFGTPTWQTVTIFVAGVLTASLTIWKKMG

Sequence of vMIA (P16778 23-487): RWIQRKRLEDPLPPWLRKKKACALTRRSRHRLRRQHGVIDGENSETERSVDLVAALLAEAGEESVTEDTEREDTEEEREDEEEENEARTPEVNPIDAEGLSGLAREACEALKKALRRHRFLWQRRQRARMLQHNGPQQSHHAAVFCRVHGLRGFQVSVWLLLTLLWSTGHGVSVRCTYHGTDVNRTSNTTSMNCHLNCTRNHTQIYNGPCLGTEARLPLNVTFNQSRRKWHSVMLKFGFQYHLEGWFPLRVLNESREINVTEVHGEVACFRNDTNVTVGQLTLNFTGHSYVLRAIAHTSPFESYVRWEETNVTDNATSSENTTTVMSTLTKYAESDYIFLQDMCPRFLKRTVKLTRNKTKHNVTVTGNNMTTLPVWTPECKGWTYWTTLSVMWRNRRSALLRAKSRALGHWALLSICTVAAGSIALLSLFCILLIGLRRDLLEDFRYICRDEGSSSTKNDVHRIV

As a reminder, the Kd is the concentration at which binding is half-saturated. vMIA (from UniProt P16778): the dissociation constant (Kd) is 140 nM.
